Assay results reported in IntAct's records for PubMed 22357847.

How the values were obtained:
rae1l_rat Rae1 [1] = molecular target: rae1l_rat Rae1 (UniProt Q3SWS8)
rae1l_rat Rae1 [2] = molecular target: rae1l_rat Rae1 (UniProt Q3SWS8); remark: listed apart in the source
rae1_caeel rae-1 = rae1_caeel rae-1 (UniProt Q93454)
Chain of UniProt Q93454 (Q93454 whole entry): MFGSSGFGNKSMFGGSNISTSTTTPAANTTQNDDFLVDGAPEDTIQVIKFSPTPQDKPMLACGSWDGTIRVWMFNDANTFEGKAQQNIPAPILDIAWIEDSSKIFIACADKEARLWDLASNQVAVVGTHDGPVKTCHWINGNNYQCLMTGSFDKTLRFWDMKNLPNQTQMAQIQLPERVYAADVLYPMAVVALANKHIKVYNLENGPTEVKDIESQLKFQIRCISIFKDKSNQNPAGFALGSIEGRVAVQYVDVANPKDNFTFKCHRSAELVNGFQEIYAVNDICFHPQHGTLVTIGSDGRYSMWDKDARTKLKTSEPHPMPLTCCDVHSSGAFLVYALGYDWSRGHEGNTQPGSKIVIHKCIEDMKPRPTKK

Chain of UniProt Q3SWS8 (Q3SWS8 whole entry): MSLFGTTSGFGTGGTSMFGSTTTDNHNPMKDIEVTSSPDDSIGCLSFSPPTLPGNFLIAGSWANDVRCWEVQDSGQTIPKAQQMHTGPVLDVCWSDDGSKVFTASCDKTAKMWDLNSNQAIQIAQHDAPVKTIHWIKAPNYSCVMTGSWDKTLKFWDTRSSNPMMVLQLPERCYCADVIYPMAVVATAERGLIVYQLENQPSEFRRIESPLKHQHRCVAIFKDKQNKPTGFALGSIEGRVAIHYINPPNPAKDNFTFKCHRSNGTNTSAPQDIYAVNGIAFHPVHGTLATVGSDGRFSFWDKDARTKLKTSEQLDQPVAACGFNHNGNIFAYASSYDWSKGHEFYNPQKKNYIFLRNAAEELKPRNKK

Substance	effect of a mutation on the interaction (rae1l_rat Rae1 [1])	effect of a mutation on the interaction (rae1l_rat Rae1 [2])	effect of a mutation on the interaction (rae1_caeel rae-1)
E3 ubiquitin-protein ligase rpm-1 (Caenorhabditis elegans), Q17551 R2088A	disrupting interaction strength		
E3 ubiquitin-protein ligase rpm-1 (Caenorhabditis elegans), Q17551 V2084A;I2087A;R2088A	decreasing interaction strength	disrupting interaction strength	disrupting interaction strength
